Laboratory results: paper PMC11784312 (Journal of Virology, 2024)
Residue numbers refer to the chain shown, from its start.

B1: 2D7 neutralizing antibody (antibody, V domains shown)
VH: VQLQESGPGLVKPSQSLSLTCTVTGYSITSDYTWNWIRQFPGNKLEWMGYISYSGSTSYNPSLKSRMSITRDTSKNQFLLQLNSVTTADTATYYCTRDGPYWHIDVWGAGTTVTVSS
VL: DIQMNQSPSSLSASLGDTITITCHASQTINIWLSWYQLKPGNIPKLLIYKASNLHTGVPSRFSGSGSGTGFTLTISSLQPEDIASYYCQQGQSFPYTFGGGTKLEIK
notes: whole murine IgG
B2: 1H9 neutralizing antibody (antibody, V domains shown)
VH: VQLQESGPGLVKPSQSLSLTCTVTGYSITSDYTWNWIRQFPGNKLEWMGYITYSDTTSYNPSLKSRISITRDTSKNQFFLQLNSVTTEDTATYYCARSDGWYGFAYWGQGTLVTVSA
VL: B1 VL with T28N, I31V, L38Q, S52F, N53D, S85T, S93T, F94Y, Y96F
notes: also called nAb 1H9; source: mouse hybridoma, ascites of BALB/c mice, purified (protein G agarose)

What was measured:
[1] = molecular target: SD008 HA expressed from pcDNA 3.1-SD008-HA (Influenza A virus …, UniProt A0A2D0Z8H0, strain); assay: immunostaining of cells or tissue; details: one partner purified
[2] = molecular target: T1, hemagglutinin of A/chicken/Guangdong/SD008/2017 (H7N9) (Influenza A virus …, UniProt A0A2D0Z8H0, strain); assay: ELISA; details: both partners purified
[3] = molecular target: T1, hemagglutinin of …; assay: flow cytometry on cells; details: one partner purified

Binder | binding result [1] | binding result [2] | binding result [3]
B1 | binds | binds | –
B2 | binds | – | binds
